Test results: patent publication US8445006B2, “Biomolecular coating for implants” (Georgia Tech Research Corporation, priority 2006, dated 2013)

How the values were obtained:
αvβ3 integrin = molecular target: T1, αvβ3 integrin (Mus musculus, UniProt O54890+P43406); assay: Crosslinking/extraction immunostaining of bound integrin; assay type: cell-based, murine; conditions: 4 h on saturated ligand-functionalized SAMs
T1 construct: endogenous in cells; host or cells: MC3T3-E1 murine osteoblast-like cells
T1 sequence (P43406 31-885 limits assumed): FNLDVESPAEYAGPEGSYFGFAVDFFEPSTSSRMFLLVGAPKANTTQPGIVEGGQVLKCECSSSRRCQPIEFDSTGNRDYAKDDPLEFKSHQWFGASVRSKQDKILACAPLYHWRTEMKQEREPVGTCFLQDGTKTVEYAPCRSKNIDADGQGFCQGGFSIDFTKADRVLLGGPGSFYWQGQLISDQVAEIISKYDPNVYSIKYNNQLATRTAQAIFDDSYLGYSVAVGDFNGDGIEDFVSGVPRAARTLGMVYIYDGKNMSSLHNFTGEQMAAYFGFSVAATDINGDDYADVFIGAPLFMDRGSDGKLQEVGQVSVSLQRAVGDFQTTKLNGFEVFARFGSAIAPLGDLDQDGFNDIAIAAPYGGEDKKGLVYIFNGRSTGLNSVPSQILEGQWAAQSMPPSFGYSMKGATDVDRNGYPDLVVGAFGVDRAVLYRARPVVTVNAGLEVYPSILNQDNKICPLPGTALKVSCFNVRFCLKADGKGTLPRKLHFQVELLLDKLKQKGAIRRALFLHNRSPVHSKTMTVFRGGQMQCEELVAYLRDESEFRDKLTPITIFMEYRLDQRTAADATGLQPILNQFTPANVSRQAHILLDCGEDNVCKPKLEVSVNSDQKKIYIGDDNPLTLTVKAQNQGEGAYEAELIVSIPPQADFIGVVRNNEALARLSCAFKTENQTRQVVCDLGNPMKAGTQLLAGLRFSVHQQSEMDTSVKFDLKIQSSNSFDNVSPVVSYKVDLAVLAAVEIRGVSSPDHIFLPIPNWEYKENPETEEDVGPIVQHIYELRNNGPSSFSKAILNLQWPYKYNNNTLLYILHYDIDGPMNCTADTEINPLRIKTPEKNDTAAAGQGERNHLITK
T1 sequence (P43406 887-1044 limits assumed): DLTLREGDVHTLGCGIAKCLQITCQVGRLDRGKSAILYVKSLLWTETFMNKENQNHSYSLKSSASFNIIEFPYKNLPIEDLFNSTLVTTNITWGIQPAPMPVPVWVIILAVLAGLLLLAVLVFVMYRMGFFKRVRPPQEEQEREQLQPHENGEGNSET
T1 sequence (O54890 26-787): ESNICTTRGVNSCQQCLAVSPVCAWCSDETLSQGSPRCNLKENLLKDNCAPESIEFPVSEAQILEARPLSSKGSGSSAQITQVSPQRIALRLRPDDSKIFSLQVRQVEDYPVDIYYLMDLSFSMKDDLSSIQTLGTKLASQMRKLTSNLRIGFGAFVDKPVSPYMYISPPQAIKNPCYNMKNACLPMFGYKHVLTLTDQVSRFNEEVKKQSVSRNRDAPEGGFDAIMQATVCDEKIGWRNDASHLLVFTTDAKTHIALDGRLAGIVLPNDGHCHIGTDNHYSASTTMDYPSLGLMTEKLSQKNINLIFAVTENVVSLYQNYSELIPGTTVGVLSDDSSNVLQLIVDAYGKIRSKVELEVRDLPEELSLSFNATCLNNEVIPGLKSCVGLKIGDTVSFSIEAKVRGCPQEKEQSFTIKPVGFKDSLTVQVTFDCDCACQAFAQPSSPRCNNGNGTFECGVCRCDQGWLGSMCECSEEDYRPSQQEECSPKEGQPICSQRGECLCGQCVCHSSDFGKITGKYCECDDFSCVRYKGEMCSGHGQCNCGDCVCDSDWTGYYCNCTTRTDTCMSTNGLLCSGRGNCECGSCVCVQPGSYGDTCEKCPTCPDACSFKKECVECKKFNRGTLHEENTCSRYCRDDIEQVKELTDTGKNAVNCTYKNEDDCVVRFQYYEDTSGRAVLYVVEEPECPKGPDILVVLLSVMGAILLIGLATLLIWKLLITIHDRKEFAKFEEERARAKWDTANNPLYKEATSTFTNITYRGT
Protocol: (§1) Surfaces were prepared on either 6-well plate lids or 35 mm tissue culture dishes, and cells seeded at 75 cells/mm^2 in serum-containing media for 4 h at 37° C. For integrin staining, a cross-linking/extraction biochemical method that selectively isolates bound integrins was employed. Cells were washed, and 1.0 mM DTSSP (Pierce) was added for 15 min to cross-link ligated integrins. After quenching with 50 mM Tris, uncrosslinked cellular components were extracted in 0.1% SDS supplemented with protease inhibitors (350 μg/ml PMSF). Samples were then blocked in 5% FBS for 1 h and incubated with integrin-specific antibodies for 1 h at 37° C. Fluorochrome-labeled secondary antibodies were then incubated for 1 h at 37° C. Following washing, samples were mounted on slides with Gel/Mount mounting media (Biomeda, Foster City, Calif.). For staining of focal adhesions, cells were extracted in 0.5% Triton X-100 in ice-cold cytoskeleton buffer (50 mM NaCl, 3 mM MgCl2, 150 mM sucrose, 20 μg/ml aprotonin, 1 μg/ml leupeptin, 1 mM PMSF, 50 mM Tris, pH 6.8) for 2 min and fixed in cold 3.7% formaldehyde in DPBS for 5 min. Cultures were blocked, subsequently incubated in anti-vinculin monoclonal antibody (1:70 in 5% FBS) and fluorochrome-labeled secondary antibodies for 1 h, and samples mounted on slides.
(§2) Since MC3T3-E1 cells assemble robust focal adhesions containing clustered integrins and intracellular structural and signaling proteins, integrin binding and focal adhesion assembly on the engineered interfaces was examined by staining for different integrin subunits and vinculin, which localizes to focal adhesions. MC3T3-E1 cells were allowed to adhere on each saturated ligand-functionalized support for 4 h and integrin binding was evaluated via a crosslinking/extraction and immunostaining protocol, which isolates integrins ligated to the ligand. […] The crosslinking and extraction technique relies in coupling free amines on both the receptor and ligand. Since the tethered RGD has no free amine, the αvβ3 staining in the RGD surfaces is attributed to focal adhesions that were not completely extracted. […] Both surfaces assembled focal adhesions containing vinculin.

α5β1 integrin = molecular target: T2, α5β1 integrin (Mus musculus, UniProt P09055+P11688); assay: as above; assay type: cell-based, murine; conditions: 4 h on saturated ligand-functionalized SAMs
T2 construct: endogenous in cells; host or cells: MC3T3-E1 murine osteoblast-like cells
Protocol: as §1, §2

T2 sequence (P11688 45-898 limits assumed): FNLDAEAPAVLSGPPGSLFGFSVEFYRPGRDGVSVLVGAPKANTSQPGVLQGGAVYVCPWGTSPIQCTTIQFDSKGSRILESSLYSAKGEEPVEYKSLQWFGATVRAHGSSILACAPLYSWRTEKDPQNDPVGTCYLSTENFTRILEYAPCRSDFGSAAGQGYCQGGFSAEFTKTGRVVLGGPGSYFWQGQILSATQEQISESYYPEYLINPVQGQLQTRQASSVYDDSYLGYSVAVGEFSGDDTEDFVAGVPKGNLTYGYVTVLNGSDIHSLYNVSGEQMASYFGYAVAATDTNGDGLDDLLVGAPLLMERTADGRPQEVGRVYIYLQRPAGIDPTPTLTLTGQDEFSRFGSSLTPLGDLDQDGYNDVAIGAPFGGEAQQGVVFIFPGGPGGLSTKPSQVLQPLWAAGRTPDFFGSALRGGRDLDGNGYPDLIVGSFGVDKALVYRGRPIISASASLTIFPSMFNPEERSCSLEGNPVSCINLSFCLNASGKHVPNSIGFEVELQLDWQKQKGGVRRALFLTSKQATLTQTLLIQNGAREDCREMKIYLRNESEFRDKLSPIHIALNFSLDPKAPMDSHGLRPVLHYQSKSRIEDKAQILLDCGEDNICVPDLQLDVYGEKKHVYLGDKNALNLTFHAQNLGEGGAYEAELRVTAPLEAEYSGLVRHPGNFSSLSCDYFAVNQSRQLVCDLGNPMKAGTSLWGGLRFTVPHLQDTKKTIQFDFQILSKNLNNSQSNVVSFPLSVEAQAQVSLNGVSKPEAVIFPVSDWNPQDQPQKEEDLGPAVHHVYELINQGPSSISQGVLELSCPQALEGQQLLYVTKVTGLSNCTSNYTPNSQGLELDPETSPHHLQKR
T2 sequence (P11688 899-1053 limits assumed): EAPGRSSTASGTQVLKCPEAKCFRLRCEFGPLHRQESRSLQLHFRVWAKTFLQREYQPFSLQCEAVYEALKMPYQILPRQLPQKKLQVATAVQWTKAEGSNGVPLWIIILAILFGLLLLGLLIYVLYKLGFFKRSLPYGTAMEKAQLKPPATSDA
T2 sequence (P09055 21-798): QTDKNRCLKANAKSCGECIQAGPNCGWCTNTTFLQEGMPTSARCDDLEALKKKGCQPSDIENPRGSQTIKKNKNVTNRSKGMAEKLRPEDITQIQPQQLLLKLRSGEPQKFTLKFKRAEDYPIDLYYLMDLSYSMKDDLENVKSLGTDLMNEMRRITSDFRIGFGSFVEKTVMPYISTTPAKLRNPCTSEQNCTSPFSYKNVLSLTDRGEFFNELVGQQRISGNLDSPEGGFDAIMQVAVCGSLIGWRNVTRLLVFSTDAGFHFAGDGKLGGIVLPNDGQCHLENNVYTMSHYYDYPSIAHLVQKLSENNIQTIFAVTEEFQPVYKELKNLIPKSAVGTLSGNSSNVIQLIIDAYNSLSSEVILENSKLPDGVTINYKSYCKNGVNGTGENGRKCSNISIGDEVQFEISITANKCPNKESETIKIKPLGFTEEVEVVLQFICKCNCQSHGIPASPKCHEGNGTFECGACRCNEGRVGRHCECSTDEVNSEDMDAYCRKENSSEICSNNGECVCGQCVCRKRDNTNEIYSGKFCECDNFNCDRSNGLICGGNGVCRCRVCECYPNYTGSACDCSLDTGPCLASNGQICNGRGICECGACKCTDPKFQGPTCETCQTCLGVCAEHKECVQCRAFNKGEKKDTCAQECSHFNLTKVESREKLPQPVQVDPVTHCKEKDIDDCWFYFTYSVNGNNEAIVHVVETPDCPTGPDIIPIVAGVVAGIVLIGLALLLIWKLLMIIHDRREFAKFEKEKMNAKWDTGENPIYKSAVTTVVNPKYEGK

Substance	bound αvβ3 integrin staining (αvβ3 integrin)	bound α5β1 integrin staining (α5β1 integrin)
FNIII7-10: monobiotinylated recombinant fibronectin fragment spanning the 7-10th type III repeats of fibronectin; α5β1 integrin ligand	minimal αvβ3 binding	robust, well-defined adhesive structures containing α5β1 integrins
GRGDSPC [RGD peptide, linear RGD oligopeptide purchased from BACHEM; primarily supports αvβ3-mediated adhesion, reference compound]	clustering of αvβ3	little staining for α5β1
